Data on 2 substances can be found in patent US10702610B2, “Method of making sulfur-containing polymers from hexahydrotriazine and dithiol precursors” (International Business Machines Corporation, priority 2015, dated 2020).

No end group written: not given here.

Data set [1] relates to human embryonic kidney cells from cell line HEK293. In words: incubation with HEK293 cells, cell viability. The format is cell-based. On the procedure: (§1) To investigate toxicity of the polymer-peptide product, the polymer-peptide product was dissolved in a simulated physiological environment comprising 10% prenatal bovine serum in a phosphate-buffered saline solution. […] The polymer-peptide products was also incubated with human embryonic kidney cells from cell line HEK293 for 24 hours, after which more than 90% cell viability was observed.

The nature of data set [2]: dissolution in simulated physiological environment (10% prenatal bovine serum in phosphate-buffered saline), precipitation/aggregation. In kind it is physicochemical. The conditions noted are these: over 24 hours. On the procedure: as §1
A further data set is described as follows: hemolysis. In kind it is cell-based. The conditions noted are these: doses up to 1000 mg/L. On the procedure:
as §1

With “polymer-peptide product: peptide SEQ. ID: NO: 1-NH2 attached to water-soluble polythioaminal polymer 4a (CLLKKLLKKC-NH2; cysteine pairing not given here; also: attached to polythioaminal polymer 4a)”, the cell viability result is listed as “more than 80%” in data set [1] (HEK293, 200 mg/L, similar incubation period) and “more than 90%” in data set [1] (HEK293, incubated 24 hours, dose not stated). In addition, the “precipitation or aggregation in solution” value in data set [2] was “No precipitation or aggregation was observed”. Further, the hemolysis entry in the data set “hemolysis” was “No hemolysis was observed”.

As for “peptide: thiol-containing amphiphilic alpha-helical peptide SEQ. ID: NO: 1-NH2 (CLLKKLLKKC-NH2; cysteine pairing not given here) [reference compound]”, the cell viability result in data set [1] (HEK293, dose of 50 mg/L) is reported as “below 70%”.
